Consider three molecules from paper PMC3748026, “The Mini-Chromosome Maintenance (Mcm) Complexes Interact with DNA Polymerase α-Primase and Stimulate Its Ability to Synthesize RNA Primers” (PLoS ONE, 2013).

Data set [1] concerns the target mouse Mcm4/6/7 complex (His6-Mcm4, Mcm6, Mcm7-Flag) (mouse, UniProt P49717 1-862; P97311 1-821; Q61881 1-719). Put plainly: cell-based or functional assay.
The target in data set [2] is T1, mouse Mcm2∼7 complex (Mcm2/3/4/5/6/7), Flag tag on Mcm5 (mouse, UniProt P97310 1-904; P25206 1-812; P49717 1-862; P49718 1-734; P97311 1-821; Q61881 …). Put plainly: cell-based or functional assay.
Data set [3] deals with the molecule itself. Briefly: native gel or EMSA; proteins alone or mixed, 25 mM Tris-HCl pH 7.5, 5 mM magnesium acetate, 20 mM 2-mercaptoethanol, 0.01% Triton X-100, 1 mM ATP, 30°C 15 min; 5% native PAGE at 4°C, silver staining; no DNA. For orientation: Mobility shift assays separate free from complexed probe on a gel.
Data set [4] concerns the target T1, mouse Mcm2∼7 complex (Mcm2/3/4/5/6/7), …. Briefly: co-IP; purified Mcm2∼7 (Flag tag on Mcm5) held on anti-Flag M2 antibody agarose beads, mixed with purified primase, His-p48 or GINS, with or without an oligonucleotide, GINS or DNase I; 50 mM Tris-HCl pH 7.5, 100 mM sodium acetate, 5 mM magnesium acetate, 1 mM ATP, 10% glycerol, 0.01% Triton X-100; 2 h at 4°C; eluted with 0.1 M glycine pH 2.8 or boiled; silver or SYPRO staining and Western blotting. As to conditions: both partners purified. Background: Immunoblotting shows a protein as a band on a membrane.

The target of a further data set is T2, DNA primase p48/p58 (human, UniProt P49642;P49643 1-420;1-509).
T2 sequence 1: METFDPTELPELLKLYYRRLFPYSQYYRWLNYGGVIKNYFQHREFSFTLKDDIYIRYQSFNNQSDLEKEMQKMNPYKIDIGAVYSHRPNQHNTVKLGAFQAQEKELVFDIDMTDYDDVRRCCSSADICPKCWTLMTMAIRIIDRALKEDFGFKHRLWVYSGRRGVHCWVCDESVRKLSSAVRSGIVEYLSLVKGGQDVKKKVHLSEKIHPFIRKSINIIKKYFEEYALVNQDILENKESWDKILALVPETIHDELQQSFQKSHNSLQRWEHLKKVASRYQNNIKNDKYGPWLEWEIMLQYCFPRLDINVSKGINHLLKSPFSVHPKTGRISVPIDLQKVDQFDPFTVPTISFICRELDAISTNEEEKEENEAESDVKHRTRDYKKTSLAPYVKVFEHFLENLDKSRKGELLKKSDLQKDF
T2 sequence 2: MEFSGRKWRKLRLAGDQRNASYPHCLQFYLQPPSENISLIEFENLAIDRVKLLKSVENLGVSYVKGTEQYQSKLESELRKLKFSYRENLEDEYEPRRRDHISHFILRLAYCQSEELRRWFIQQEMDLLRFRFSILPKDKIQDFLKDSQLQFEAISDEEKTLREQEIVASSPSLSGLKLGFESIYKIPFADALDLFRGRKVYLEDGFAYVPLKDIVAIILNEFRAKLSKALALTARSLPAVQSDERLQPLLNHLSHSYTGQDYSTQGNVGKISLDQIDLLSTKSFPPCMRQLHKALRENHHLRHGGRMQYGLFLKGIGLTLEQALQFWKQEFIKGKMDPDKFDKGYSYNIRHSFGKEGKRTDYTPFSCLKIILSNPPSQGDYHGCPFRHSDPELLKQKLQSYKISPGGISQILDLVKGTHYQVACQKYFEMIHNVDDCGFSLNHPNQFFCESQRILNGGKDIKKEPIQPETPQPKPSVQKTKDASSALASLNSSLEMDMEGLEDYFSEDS
Put plainly: EMSA; 0.5 mM ATPgS; EMSA: 25 mM Tris-HCl pH 7.5, 40 mM Na acetate, 10 mM Mg acetate, 20 mM 2-mercaptoethanol, 0.25 mg/ml BSA, 0.5 mM ATPgS, 30 C 30 min; pull-down: 25 mM Tris-HCl pH 7.5, 100 mM Na acetate, 10 mM Mg acetate, 0.25 mg/ml casein, 1 mM DTT, 0.01% Triton-X, 0.5 mM ATPgS or 1 mM ATP, 30 C 30 min then beads 4 C 30 min. As to conditions: protein: recombinant; tags: His6 on p58; p48 untagged; copies: 1;1; label: 5'-32P; single strand.

The target in data set [5] is Mcm4/6/7 complex;DNA primase p48/p58 (mouse;human, UniProt P49717;P97311;Q61881;P49642;P49643 1-862;1-821;1-719;1-420;1-509, |). Put plainly: EMSA; 0.5 mM ATPgS; 2.3 nM Mcm4/6/7, 25-100 nM primase; slower band, proportional to primase; EMSA: 25 mM Tris-HCl pH 7.5, 40 mM Na acetate, 10 mM Mg acetate, 20 mM 2-mercaptoethanol, 0.25 mg/ml BSA, 0.5 mM ATPgS, 30 C 30 min; pull-down: 25 mM Tris-HCl pH 7.5, 100 mM Na acetate, 10 mM Mg acetate, 0.25 mg/ml casein, 1 mM DTT, 0.01% Triton-X, 0.5 mM ATPgS or 1 mM ATP, 30 C 30 min then beads 4 C 30 min. As to conditions: protein: recombinant;recombinant; tags: His6-Mcm4; Mcm7-Flag;His6 on p58; p48 untagged; chain copies: 2;2;2;1;1; label: 5'-32P; single strand.

A further data set concerns the target Mcm4/6/7 complex (mouse, UniProt P49717;P97311;Q61881 1-862;1-821;1-719). Briefly: EMSA; 0.5 mM ATPgS; 2.3 nM Mcm4/6/7; EMSA: 25 mM Tris-HCl pH 7.5, 40 mM Na acetate, 10 mM Mg acetate, 20 mM 2-mercaptoethanol, 0.25 mg/ml BSA, 0.5 mM ATPgS, 30 C 30 min; pull-down: 25 mM Tris-HCl pH 7.5, 100 mM Na acetate, 10 mM Mg acetate, 0.25 mg/ml casein, 1 mM DTT, 0.01% Triton-X, 0.5 mM ATPgS or 1 mM ATP, 30 C 30 min then beads 4 C 30 min. As to conditions: protein: recombinant; tags: His6-Mcm4; Mcm7-Flag; chain copies: 2;2;2; label: 5'-32P; single strand.

Sequence of mouse Mcm4/6/7 complex (His6-Mcm4, Mcm6, Mcm7-Flag) (P49717 whole entry, chain 1 of 3): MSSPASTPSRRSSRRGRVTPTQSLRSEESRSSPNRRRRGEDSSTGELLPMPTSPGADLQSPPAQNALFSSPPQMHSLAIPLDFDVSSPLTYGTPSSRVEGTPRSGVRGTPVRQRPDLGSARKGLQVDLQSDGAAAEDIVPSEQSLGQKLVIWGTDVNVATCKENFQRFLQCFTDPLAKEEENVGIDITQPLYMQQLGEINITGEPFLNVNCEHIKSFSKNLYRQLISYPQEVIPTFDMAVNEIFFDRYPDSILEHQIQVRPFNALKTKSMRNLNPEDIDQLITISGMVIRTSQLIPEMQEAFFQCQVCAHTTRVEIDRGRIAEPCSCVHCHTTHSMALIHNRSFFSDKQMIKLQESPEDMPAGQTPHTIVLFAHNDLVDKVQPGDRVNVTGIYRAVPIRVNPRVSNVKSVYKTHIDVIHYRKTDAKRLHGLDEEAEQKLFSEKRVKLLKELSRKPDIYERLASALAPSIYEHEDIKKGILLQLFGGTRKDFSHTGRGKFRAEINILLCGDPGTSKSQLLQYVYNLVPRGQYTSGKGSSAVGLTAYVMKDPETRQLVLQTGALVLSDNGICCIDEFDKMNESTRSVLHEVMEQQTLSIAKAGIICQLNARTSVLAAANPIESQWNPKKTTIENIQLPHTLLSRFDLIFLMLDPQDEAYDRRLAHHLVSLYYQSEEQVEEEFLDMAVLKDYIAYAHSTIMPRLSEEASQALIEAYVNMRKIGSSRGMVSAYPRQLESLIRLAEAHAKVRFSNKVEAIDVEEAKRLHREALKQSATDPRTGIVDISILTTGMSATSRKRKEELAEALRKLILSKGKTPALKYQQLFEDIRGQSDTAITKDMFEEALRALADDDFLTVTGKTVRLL
Sequence of mouse Mcm4/6/7 complex (His6-Mcm4, Mcm6, Mcm7-Flag) (P97311 whole entry, chain 2 of 3): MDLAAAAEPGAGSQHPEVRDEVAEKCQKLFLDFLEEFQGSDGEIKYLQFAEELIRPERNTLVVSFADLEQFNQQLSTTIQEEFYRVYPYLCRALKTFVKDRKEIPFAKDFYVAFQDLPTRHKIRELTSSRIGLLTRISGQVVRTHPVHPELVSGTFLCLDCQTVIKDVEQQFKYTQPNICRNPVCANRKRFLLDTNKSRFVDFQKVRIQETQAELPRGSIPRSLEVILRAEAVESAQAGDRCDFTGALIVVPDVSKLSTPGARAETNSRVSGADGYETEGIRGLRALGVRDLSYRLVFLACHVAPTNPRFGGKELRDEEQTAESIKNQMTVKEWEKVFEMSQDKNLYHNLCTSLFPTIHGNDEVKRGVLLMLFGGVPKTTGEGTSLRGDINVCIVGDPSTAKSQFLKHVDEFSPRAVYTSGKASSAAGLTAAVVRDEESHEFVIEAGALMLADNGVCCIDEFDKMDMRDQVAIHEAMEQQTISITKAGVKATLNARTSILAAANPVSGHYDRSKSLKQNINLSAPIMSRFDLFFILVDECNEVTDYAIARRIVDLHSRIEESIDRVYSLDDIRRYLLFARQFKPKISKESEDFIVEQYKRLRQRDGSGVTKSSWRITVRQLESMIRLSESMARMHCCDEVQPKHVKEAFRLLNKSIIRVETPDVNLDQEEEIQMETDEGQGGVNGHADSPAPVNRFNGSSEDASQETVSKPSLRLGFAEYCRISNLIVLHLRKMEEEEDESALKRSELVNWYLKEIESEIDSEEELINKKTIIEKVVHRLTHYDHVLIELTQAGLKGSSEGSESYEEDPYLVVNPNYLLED
Sequence of mouse Mcm4/6/7 complex (His6-Mcm4, Mcm6, Mcm7-Flag) (Q61881 whole entry, chain 3 of 3): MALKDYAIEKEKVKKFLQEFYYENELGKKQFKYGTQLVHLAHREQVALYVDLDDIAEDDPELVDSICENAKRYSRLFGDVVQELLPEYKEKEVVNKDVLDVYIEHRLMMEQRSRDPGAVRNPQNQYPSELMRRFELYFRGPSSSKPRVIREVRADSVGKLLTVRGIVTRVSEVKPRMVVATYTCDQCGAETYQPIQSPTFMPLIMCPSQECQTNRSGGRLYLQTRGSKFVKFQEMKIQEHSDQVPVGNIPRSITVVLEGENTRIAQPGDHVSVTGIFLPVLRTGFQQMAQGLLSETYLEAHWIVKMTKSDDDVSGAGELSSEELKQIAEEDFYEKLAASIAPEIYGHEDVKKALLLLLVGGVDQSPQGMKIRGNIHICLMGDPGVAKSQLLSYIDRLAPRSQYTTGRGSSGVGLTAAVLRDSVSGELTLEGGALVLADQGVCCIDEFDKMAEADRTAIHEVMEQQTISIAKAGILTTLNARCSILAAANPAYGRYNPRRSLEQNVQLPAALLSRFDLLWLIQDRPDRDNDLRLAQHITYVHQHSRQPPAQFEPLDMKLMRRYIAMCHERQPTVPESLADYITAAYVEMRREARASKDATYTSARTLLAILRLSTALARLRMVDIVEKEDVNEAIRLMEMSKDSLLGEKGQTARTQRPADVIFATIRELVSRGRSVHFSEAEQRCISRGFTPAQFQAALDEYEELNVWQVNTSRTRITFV
Sequence of Mcm4/6/7 complex;DNA primase p48/p58 (P49717 whole entry, chain 1 of 3): as the sequence (P49717 whole entry, chain 1 of 3) above
Sequence of Mcm4/6/7 complex;DNA primase p48/p58 (P97311 whole entry, chain 2 of 3): as the sequence (P97311 whole entry, chain 2 of 3) above
Sequence of Mcm4/6/7 complex;DNA primase p48/p58 (Q61881 whole entry, chain 3 of 3): as the sequence (Q61881 whole entry, chain 3 of 3) above
Sequence of Mcm4/6/7 complex (P49717 whole entry, chain 1 of 3): as the sequence (P49717 whole entry, chain 1 of 3) above
Sequence of Mcm4/6/7 complex (P97311 whole entry, chain 2 of 3): as the sequence (P97311 whole entry, chain 2 of 3) above
Sequence of Mcm4/6/7 complex (Q61881 whole entry, chain 3 of 3): as the sequence (Q61881 whole entry, chain 3 of 3) above

B1: human DNA primase p48/p58 hetero-dimeric complex (His-tagged p58, non-tagged p48) (complex)
chain 1: T2 sequence 1
chain 2: T2 sequence 2
notes: DNA primase small subunit p48, human; DNA primase large subunit p58, human; End of the His tag is read from the printed name His-p58; also called His-p58/p48 complex; His-tagged p48/p58 complex; source: E. coli BL21 (DE3) RIL, purified as previously described [58]; not shown: His tag, N-terminal, kept
B1: in data set [1], the “RNA primer synthesis by p48/p58 primase on M13 ssDNA with 100-600 ng of Mcm4/6/7” value lay within 4 to 7 fold and the “RNA primer synthesis by p48/p58 primase on poly(dT) with 100-600 ng of Mcm4/6/7” value was around 3 fold. The “RNA primer synthesis by p48/p58 primase on poly(dT) with 100-400 ng of Mcm2∼7” value in data set [2] was around 3 fold. Also, the binding result in data set [3] is listed as “binds”.

B2: His-tagged p48 alone (human DNA primase p48 single subunit) (natural protein, UniProt P49642 1-420, looked up)
chain: T2 sequence 1
notes: DNA primase small subunit p48, human; End of the His tag is read from the printed name His-p48; also called His-p48; source: E. coli BL21 (DE3) RIL, purified as previously described [58]; not shown: His tag, N-terminal, kept
Regarding B2, the binding result in data set [4] was “binds”.

B3: 132-mer pyrimidine-rich oligonucleotide (ssDNA)
DNA: CCACACATGATTTGTTTGCTCCCTGAAATGATCTATATTTAATATATAATGTATATTCCCTCGGGATTTTTTATTTTGTGTTATTCCACGGCATGAAAAACAAAAAACATTCTTCTCATCCTTGGTCCCTCA
On to B3, for which the binding result (in the data set with DNA primase p48/p58; in data set [5]; with Mcm4/6/7 complex) was “binds” each time.
